Data on two substances can be found in doi:10.1101/2022.08.03.502606.

Where two headings read alike, the source gives them in different places.

Assay [1] deals with CaMKII^F394BzF (human) (UniProt Q9UQM7).
Assay [2] deals with CaMKII^K42RD135N-AviTag (kinase-dead CaMKII, K42R and D135N double mutant, C-terminal AviTag) (human) (UniProt Q9UQM7).
Assay [3] has the same target. Briefly: mass photometry.
The target is the same in assay [4]. Briefly: mass photometry. The source holds these as a separate data set.

A word on the stoichiometry N: it is a count of units in the complex or per binding partner. “CaMKII^F394BzF (from UniProt Q9UQM7 6-478) (enzyme)” displayed a stoichiometry N in assay [1] of 12.

For “CaMKII^K42RD135N-AviTag (kinase-dead CaMKII, K42R and D135N double mutant, C-terminal AviTag) (from UniProt Q9UQM7 6-478) (enzyme)”, the stoichiometry N was found to be 12 in assay [2], 10 in assay [3] and 4 in assay [4]. Besides, the percent in the tetramer peak in assay [4] was determined as 12%.
